Laboratory results from article PMC8987015, “Studying Acetylation of Aconitase Isozymes by Genetic Code Expansion” (Frontiers in Chemistry, 2022).

What was measured:
[1] = target: AcnA (Escherichia coli, UniProt P25516); conditions: citrate 0.1 to 50 mM; enzyme reactivated with 1 mM (NH4)2Fe(SO4)2 and 5 mM DTT, 50 mM Tris pH 8
[2] = target: AcnB (Escherichia coli, UniProt P36683); conditions: citrate 0.1 to 50 mM; enzyme reactivated with 1 mM (NH4)2Fe(SO4)2 and 5 mM DTT, 50 mM Tris pH 8
[3] = substrate: O=C(O)CC(O)(CC(=O)O)C(=O)O; experiment: purified protein; conditions: citrate 0.1 to 50 mM, enzyme reactivated with 1 mM (NH4)2Fe(SO4)2 and 5 mM DTT, 50 mM Tris pH 8

Km [1] [mM] | Km [2] [mM] | Molecule | Km [3] [mM] | kcat [3] [s⁻¹]
3.45 ± 0.23 | 9.76 ± 0.67 | O=C(O)CC(O)(CC(=O)O)C(=O)O [citrate] |  | 
 |  | AcnB (Escherichia coli K-12) (protein) MLEEYRKHVAERAAEGIAPKPLDANQMAALVELLKNPPAGEEEFLLDLLTNRVPPGVDEAAYVKAGFLAAIAKGEAKSPLLTPEKAIELLGTMQGGYNIHPLIDALDDAKLAPIAAKALSHTLLMFDNFYDVEEKAKAGNEYAKQVMQSWADAEWFLNRPALAEKLTVTVFKVTGETNTDDLSPAPDAWSRPDIPLHALAMLKNAREGIEPDQPGVVGPIKQIEALQQKGFPLAYVGDVVGTGSSRKSATNSVLWFMGDDIPHVPNKRGGGLCLGGKIAPIFFNTMEDAGALPIEVDVSNLNMGDVIDVYPYKGEVRNHETGELLATFELKTDVLIDEVRAGGRIPLIIGRGLTTKAREALGLPHSDVFRQAKDVAESDRGFSLAQKMVGRACGVKGIRPGAYCEPKMTSVGSQDTTGPMTRDELKDLACLGFSADLVMQSFCHTAAYPKPVDVNTHHTLPDFIMNRGGVSLRPGDGVIHSWLNRMLLPDTVGTGGDSHTRFPIGISFPAGSGLVAFAAATGVMPLDMPESVLVRFKGKMQPGITLRDLVHAIPLYAIKQGLLTVEKKGKKNIFSGRILEIEGLPDLKVEQAFELTDASAERSAAGCTIKLNKEPIIEYLNSNIVLLKWMIAEGYGDRRTLERRIQGMEKWLANPELLEADADAEYAAVIDIDLADIKEPILCAPNDPDDARPLSAVQGEKIDEVFIGSCMTNIGHFRAAGKLLDAHKGQLPTRLWVAPPTRMDAAQLTEEGYYSVFGKSGARIEIPGCSLCMGNQARVADGATVVSTSTRNFPNRLGTGANVFLASAELAAVAALIGKLPTPEEYQTYVAQVDKTAVDTYRYLNFNQLSQYTEKADGVIFQTAV | 9.34 ± 0.72 | 63.5 ± 4.52
 |  | AcnA (Escherichia coli K-12) (protein) SSTLREASKDTLQAKDKTYHYYSLPLAAKSLGDITRLPKSLKVLLENLLRWQDGNSVTEEDIHALAGWLKNAHADREIAYRPARVLMQDFTGVPAVVDLAAMREAVKRLGGDTAKVNPLSPVDLVIDHSVTVDRFGDDEAFEENVRLEMERNHERYVFLKWGKQAFSRFSVVPPGTGICHQVNLEYLGKAVWSELQDGEWIAYPDTLVGTDSHTTMINGLGVLGWGVGGIEAEAAMLGQPVSMLIPDVVGFKLTGKLREGITATDLVLTVTQMLRKHGVVGKFVEFYGDGLDSLPLADRATIANMSPEYGATCGFFPIDAVTLDYMRLSGRSEDQVELVEKYAKAQGMWRNPGDEPIFTSTLELDMNDVEASLAGPKRPQDRVALPDVPKAFAASNELEVNATHKDRQPVDYVMNGHQYQLPDGAVVIAAITSCTNTSNPSVLMAAGLLAKKAVTLGLKRQPWVKASLAPGSKVVSDYLAKAKLTPYLDELGFNLVGYGCTTCIGNSGPLPDPIETAIKKSDLTVGAVLSGNRNFEGRIHPLVKTNWLASPPLVVAYALAGNMNINLASEPIGHDRKGDPVYLKDIWPSAQEIARAVEQVSTEMFRKEYAEVFEGTAEWKGINVTRSDTYGWQEDSTYIRLSPFFDEMQATPAPVEDIHGARILAMLGDSVTTDHISPAGSIKPDSPAGRYLQGRGVERKDFNSYGSRRGNHEVMMRGTFANIRIRNEMVPGVEGGMTRHLPDSDVVSIYDAAMRYKQEQTPLAVIAGKEYGSGSSRDWAAKGPRLLGIRVVIAESFERIHRSNLIGMGILPLEFPQGVTRKTLGLTGEEKIDIGDLQNLQPGATVPVTLTRADGSQEVVPCRCRIDTATELTYYQNDGILHYVIRNMLK | 1.64 ± 0.21 | 20.6 ± 1.62
